# In US20180118800:
# B1: U1p1 protease (protein)
# chain: LVPELNEKDDDQVQKALASRENTQLMNRDNIEITVRDFKTLAPRRWLNDTIIEFFMKYIEKSTPNTVAFNSFFYTNLSERGYQGVRRWMKRKKTQIDKLDKIFTPINLNQSHWALGIIDLKKKTIGYVDSLSNGPNAMSFAILTDLQKYVMEESKHTIGEDFDLIHLDCPQQPNGYDCGIYVCMNTLYGSADAPLDFDYKDAIRMRRFIAHLILTDALK
# What was measured:
# [1] = tested on: His6-Smt3-LTPR-GLP-2 analog fusion protein
# [2] = tested on: T1, PVSGPRHGDGSF (SEQ ID NO: 7)
# T1 sequence: PVSGPRHGDGSF
# [3] = tested on: T2, ITDPLVPRHGDGS (SEQ ID NO: 8)
# T2 sequence: ITDPLVPRHGDGS
# [4] = tested on: T3, PLTPRHGDGSF (SEQ ID NO: 6)
# T3 sequence: PLTPRHGDGSF
# [5] = molecular target: T4, His6-Smt3-GLP-2 analog fusion protein
# T4 chain: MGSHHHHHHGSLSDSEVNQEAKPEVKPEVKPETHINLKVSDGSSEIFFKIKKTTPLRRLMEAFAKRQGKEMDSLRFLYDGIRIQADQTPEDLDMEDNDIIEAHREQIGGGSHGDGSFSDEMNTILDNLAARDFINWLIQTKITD
Molecule,"thrombin cleavage of fusion protein, RP-HPLC (C18) [1]","thrombin cleavage of fusion protein, SDS-PAGE [1]","thrombin cleavage of synthetic peptide, RP-HPLC (C18) [2]","thrombin cleavage of synthetic peptide, RP-HPLC (C18) [3]","thrombin cleavage of synthetic peptide, RP-HPLC (C18) [4]","U1p1 protease cleavage of fusion protein, SDS-PAGE [5]"
thrombin,produced a complete cleaved product without partially cleaved segments after thrombin cleavage,thrombin had only one cleavage site on the His6-Smt3-Linker-GLP-2 analog fusion protein,Each of the three peptides was cleaved with thrombin,Each of the three peptides was cleaved with thrombin,PLTPRHGDGSF was cleaved the most thoroughly,
B1,,,,,,U1p1 protease had only one cleavage cite on the His6-Smt3-GLP-2 analog fusion protein but cleaved far less efficiently than thrombin cleaving a His6-Smt3-Linker-GLP-2 analog fusion protein
